Measured values taken from patent US20050282743A1, “Molecular interactions in cells” (Arbor Vita Corporation, priority 2001, published 2005).
Each block holds one binder with its values, some of them ahead of it.

What was measured:
[1] = molecular target: GST-KIAA1634 PDZ domain 1 (Homo sapiens (Human)), Q5TCQ9; experiment: G' assay; further: key of the grades not given here
[2] = molecular target: T1, GST-PICK1 PDZ domain 1 (Bos taurus (Bovine)), Q2T9M1; experiment: G' assay; further: key of the grades not given here
T1 chain: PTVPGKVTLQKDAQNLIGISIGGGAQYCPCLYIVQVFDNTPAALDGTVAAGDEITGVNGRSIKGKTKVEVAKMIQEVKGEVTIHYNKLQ

[3] = molecular target: T2, GST-FLJ 10324 PDZ domain 1 [GST: P08515]; experiment: G' assay; further: key of the grades not given here
T2 chain: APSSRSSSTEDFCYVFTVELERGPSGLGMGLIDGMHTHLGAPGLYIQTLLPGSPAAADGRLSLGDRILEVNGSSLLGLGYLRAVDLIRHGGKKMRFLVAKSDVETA

[4] = molecular target: T3, GST-PTPL1 PDZ domain 4 (Homo sapiens (Human)), Q12923; experiment: G' assay; further: key of the grades not given here
T3 chain: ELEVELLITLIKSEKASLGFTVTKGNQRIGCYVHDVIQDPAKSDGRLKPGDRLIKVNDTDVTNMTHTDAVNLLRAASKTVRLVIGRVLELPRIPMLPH

[5] = molecular target: T4, GST-KIAA0807(S) PDZ domain 1 (Homo sapiens (Human)), Q6P0Q8; experiment: G' assay; further: key of the grades not given here
T4 chain: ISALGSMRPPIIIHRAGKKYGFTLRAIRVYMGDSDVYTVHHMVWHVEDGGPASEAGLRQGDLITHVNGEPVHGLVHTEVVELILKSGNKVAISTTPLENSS

[6] = molecular target: T5, GST-HEMBA 1003117 PDZ domain 1 (Homo sapiens (Human)), Q96JH8; experiment: G' assay; further: key of the grades not given here
T5 chain: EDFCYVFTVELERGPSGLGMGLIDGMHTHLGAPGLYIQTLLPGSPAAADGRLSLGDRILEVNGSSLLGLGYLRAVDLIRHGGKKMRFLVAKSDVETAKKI

[7] = molecular target: GST-KIAA807 [GST: P08515]; experiment: G' assay; further: key of the grades not given here
GST-KIAA807 [GST: P08515], sequence (P08515 whole entry, the tested form may be a part): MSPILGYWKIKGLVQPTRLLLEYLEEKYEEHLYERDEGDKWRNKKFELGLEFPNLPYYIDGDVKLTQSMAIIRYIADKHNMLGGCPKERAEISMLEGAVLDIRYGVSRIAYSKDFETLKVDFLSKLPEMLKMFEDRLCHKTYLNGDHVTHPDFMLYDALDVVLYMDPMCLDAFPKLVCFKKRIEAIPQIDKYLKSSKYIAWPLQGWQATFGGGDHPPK

[8] = molecular target: T6, GST-ZO-1 PDZ domain 2 (Rattus norvegicus (Rat)), A0A0G2; experiment: G' assay; further: key of the grades not given here
T6 chain: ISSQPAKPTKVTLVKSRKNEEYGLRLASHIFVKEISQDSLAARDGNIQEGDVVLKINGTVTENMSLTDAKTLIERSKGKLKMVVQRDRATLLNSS

[9] = molecular target: GST-KIAA1634 PDZ domain 1 (Homo sapiens (Human)), Q5TCQ9; experiment: G assay titration, PDZ 5 ug/ml
[10] = molecular target: T1, GST-PICK1 PDZ domain 1 (Bos taurus …); experiment: G assay titration, PDZ 5 ug/ml
[11] = molecular target: T3, GST-PTPL1 PDZ domain 4 (Homo sapiens …); experiment: G assay titration, PDZ 5 ug/ml
[12] = molecular target: T4, GST-KIAA0807(S) PDZ domain 1 (Homo …); experiment: G assay titration, PDZ 5 ug/ml
[13] = molecular target: T5, GST-HEMBA 1003117 PDZ domain 1 (Homo …); experiment: G assay titration, PDZ 5 ug/ml
[14] = molecular target: GST-KIAA807 [GST: P08515]; experiment: G assay titration, PDZ 5 ug/ml
[15] = molecular target: T2, GST-FLJ 10324 PDZ domain 1 [GST: P08515]; experiment: G assay titration, PDZ 1 ug/ml
[16] = molecular target: GST-KIAA1634 PDZ domain 1 (Homo sapiens (Human)), Q5TCQ9; experiment: G assay titration, PDZ 0.3 ug/ml
[17] = molecular target: GST-PIST PDZ domain 1 (Mus musculus (Mouse)), Q8BH60; experiment: G assay titration, PDZ 0.5 ug/ml
[18] = molecular target: T7, GST-EZRIN Binding Protein 50 PDZ domain 1 (Homo sapiens (Human)), O14745; experiment: G' assay; further: key of the grades not given here
T7 chain: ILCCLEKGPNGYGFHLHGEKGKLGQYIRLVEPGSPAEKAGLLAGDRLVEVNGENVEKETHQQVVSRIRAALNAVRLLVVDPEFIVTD

[19] = molecular target: T8, GST-TIP1 PDZ domain 1 (Table 9 insert) (Homo sapiens (Human)), O14907; experiment: G' assay; further: key of the grades not given here
T8 chain: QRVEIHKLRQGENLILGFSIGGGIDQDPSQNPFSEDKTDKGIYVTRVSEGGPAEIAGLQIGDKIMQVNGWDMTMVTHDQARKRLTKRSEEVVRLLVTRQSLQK

[20] = molecular target: T9, GST-NeDLG PDZ domains 1, 2, Q92796; experiment: G' assay; further: key of the grades not given here
T9 chain: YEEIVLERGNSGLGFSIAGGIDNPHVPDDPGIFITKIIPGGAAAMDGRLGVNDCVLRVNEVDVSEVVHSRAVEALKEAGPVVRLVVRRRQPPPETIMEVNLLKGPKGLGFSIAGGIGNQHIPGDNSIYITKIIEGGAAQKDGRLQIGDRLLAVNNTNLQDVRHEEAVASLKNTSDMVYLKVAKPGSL

[21] = molecular target: T10, GST-INADL PDZ domain 8 (Homo sapiens (Human)), Q8NI35; experiment: G' assay; further: key of the grades not given here
T10 chain: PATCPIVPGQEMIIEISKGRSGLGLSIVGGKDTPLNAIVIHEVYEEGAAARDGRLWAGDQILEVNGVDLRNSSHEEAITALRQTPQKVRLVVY

[22] = molecular target: T11, GST-Outer Membrane PDZ domain 1 (Homo sapiens (Human)), P57105; experiment: G' assay; further: key of the grades not given here
T11 chain: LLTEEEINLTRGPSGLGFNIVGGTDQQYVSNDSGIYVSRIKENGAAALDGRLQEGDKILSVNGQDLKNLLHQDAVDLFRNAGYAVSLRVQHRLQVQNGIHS

[23] = molecular target: T12, GST-BAI-1 Associated Protein PDZ domain 2 (Mus musculus (Mouse)), Q6RHR9; experiment: G' assay; further: key of the grades not given here
T12 sequence (Q6RHR9 455-558): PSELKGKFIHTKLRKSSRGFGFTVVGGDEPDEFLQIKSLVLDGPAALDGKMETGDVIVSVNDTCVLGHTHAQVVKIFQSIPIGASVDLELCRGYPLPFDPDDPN

[24] = molecular target: GST-PSD95 PDZ domains 1, 2, 3 (Homo sapiens), P78352; experiment: G' assay; further: key of the grades not given here
GST-PSD95 PDZ domains 1, 2, 3 (Homo sapiens), P78352, sequence (P78352 62-395): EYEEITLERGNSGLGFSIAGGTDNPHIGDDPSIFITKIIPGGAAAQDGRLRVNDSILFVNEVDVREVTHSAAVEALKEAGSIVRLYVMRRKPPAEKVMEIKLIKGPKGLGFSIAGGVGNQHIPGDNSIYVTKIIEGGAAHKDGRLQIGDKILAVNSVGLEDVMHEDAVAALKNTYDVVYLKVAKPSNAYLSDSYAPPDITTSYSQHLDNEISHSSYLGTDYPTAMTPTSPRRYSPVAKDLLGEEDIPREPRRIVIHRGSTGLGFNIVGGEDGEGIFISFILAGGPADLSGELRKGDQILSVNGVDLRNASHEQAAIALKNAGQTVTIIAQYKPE

[25] = molecular target: T13, GST-NOS1 PDZ domain 1 (Homo sapiens (Human)), P29475; experiment: G' assay; conditions: remark: other sources report otherwise; further: key of the grades not given here
T13 chain: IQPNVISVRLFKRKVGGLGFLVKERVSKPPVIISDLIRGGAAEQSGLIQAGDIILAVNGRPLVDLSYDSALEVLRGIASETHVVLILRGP

[26] = molecular target: T14, GST-Shank 1 PDZ domain 1 (Homo sapiens (Human)), Q9UPX8; experiment: G' assay; further: key of the grades not given here
T14 chain: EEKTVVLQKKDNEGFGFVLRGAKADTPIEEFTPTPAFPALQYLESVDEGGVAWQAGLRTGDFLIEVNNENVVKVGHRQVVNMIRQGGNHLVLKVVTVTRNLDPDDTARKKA

[27] = molecular target: T15, GST-MUPP1 PDZ domain 10 (Homo sapiens (Human)), O75970; experiment: G' assay; further: key of the grades not given here
T15 chain: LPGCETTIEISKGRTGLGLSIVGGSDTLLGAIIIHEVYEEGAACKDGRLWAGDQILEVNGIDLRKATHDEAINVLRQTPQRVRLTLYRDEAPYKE

[28] = molecular target: GST-PIST PDZ domain 1 (Mus musculus (Mouse)), Q8BH60; experiment: G' assay; further: key of the grades not given here
[29] = molecular target: T16, GST-EZRIN Binding Protein 50 PDZ domain 2 (Homo sapiens (Human)), O14745; experiment: G' assay; further: key of the grades not given here
T16 chain: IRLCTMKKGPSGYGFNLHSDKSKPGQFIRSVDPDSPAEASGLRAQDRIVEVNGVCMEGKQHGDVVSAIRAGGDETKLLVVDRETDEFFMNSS

[30] = molecular target: T17, GST-Shank 3 PDZ domain 1 (human (hypothetical, computer cloned)), Q9BYB0; experiment: G' assay; further: key of the grades not given here
T17 chain: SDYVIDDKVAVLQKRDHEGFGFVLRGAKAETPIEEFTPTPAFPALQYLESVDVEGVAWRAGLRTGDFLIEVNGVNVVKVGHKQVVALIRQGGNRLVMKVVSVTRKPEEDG

[31] = molecular target: GST-DLG1 PDZ domains 1, 2 (Homo sapiens), Q12959; experiment: G' assay; further: key of the grades not given here
[32] = molecular target: T18, GST-Atrophin-1 Interacting Protein PDZ domain 1 (Rattus norvegicus (Rat)), O88382; experiment: G' assay; further: key of the grades not given here
T18 sequence (O88382 408-511): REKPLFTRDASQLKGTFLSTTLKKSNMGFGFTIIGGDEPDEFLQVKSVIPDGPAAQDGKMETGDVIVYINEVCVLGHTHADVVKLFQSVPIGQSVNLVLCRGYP

[33] = molecular target: T19, GST-ZO-1 PDZ domain 1 (Rattus norvegicus (Rat)), A0A0G2; experiment: G' assay; further: key of the grades not given here
T19 chain: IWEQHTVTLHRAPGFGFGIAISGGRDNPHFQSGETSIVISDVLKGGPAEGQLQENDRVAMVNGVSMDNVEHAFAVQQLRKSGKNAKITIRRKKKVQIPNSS

[34] = molecular target: T20, GST-ZO-2 PDZ domain 1 (Homo sapiens (Human)), Q9UDY2; experiment: G' assay; further: key of the grades not given here
T20 chain: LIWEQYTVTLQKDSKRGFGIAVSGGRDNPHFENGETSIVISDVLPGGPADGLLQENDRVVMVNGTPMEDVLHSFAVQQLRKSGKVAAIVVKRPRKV

[35] = molecular target: T12, GST-BAI-1 Associated Protein PDZ domain …; experiment: G assay titration, PDZ 0.1 ug/ml
[36] = molecular target: T20, GST-ZO-2 PDZ domain 1 (Homo sapiens …); experiment: G assay with desipramine or nortryptilline against no drug
[37] = molecular target: T14, GST-Shank 1 PDZ domain 1 (Homo sapiens …); experiment: G assay titration, PDZ 1 ug/ml
[38] = molecular target: T15, GST-MUPP1 PDZ domain 10 (Homo sapiens …); experiment: G assay titration, PDZ 1 ug/ml
[39] = molecular target: T18, GST-Atrophin-1 Interacting Protein PDZ …; experiment: G assay titration, PDZ 1 ug/ml
[40] = molecular target: T19, GST-ZO-1 PDZ domain 1 (Rattus …); experiment: G assay titration, PDZ 1 ug/ml
[41] = molecular target: T20, GST-ZO-2 PDZ domain 1 (Homo sapiens …); experiment: G assay titration, PDZ 1 ug/ml

GST-KIAA1634 PDZ domain 1 (Homo sapiens (Human)), Q5TCQ9, sequence (Q5TCQ9 401-502): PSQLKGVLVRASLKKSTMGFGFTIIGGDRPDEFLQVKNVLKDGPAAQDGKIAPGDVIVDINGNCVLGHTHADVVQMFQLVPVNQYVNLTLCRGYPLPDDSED

Classification [1]: 3 A450 class
Classification [2]: 2 A450 class
Classification [3]: 5 A450 class
Classification [4]: 3 A450 class
Classification [5]: 4 A450 class
Classification [6]: 5 A450 class
Classification [7]: 4 A450 class
Classification [8]: 1 A450 class
Kd [9]: 0.9 µM
Kd [10]: 0.9 µM
Kd [11]: 0.4 µM
Kd [12]: 0.4 µM
Kd [13]: 0.3 µM
Kd [14]: 0.4 µM
Kd [15]: 0.3 µM
B1: Dopamine transporter (peptide)
peptide: RELVDRGEVRQFTLRHWLKV
modifications: not checked

Kd [16]: 1 µM
Kd [17]: 2.5 µM
Classification [1]: 5 A450 class
Classification [18]: 1 A450 class
Classification [19]: 1 A450 class
Classification [20]: 2 A450 class
Classification [21]: 5 A450 class
Classification [22]: 1 A450 class
Classification [23]: 5 A450 class
Classification [24]: 2 A450 class
Classification [25]: 1 A450 class
Classification [26]: 5 A450 class
Classification [27]: 4 A450 class
Classification [28]: 4 A450 class
Classification [29]: 1 A450 class
Classification [30]: 2 A450 class
Classification [5]: 3 A450 class
Classification [31]: 1 A450 class
Classification [7]: 3 A450 class
Classification [32]: 3 A450 class
Classification [33]: 2 A450 class
Classification [34]: 3 A450 class
Kd [35]: 4 µM
fold decrease of binding with drug [36]: 4.2 fold
Kd [12]: 2 µM
Kd [14]: 2 µM
Kd [37]: 5 µM
Kd [38]: 2.5 µM
Kd [39]: 3 µM
Kd [40]: 5 µM
Kd [41]: 3 µM
B2: DNAM-1 (peptide)
peptide: TREDIYVNYPTFSRRPKTRV
modifications: not checked
